{"source": "paper PMC11910330", "about": "“Familial Alzheimer’s disease mutations in amyloid precursor protein impair calcineurin signaling to NMDA receptors” (The Journal of Biological Chemistry, 2024)", "molecular_target": "recombinant GST-tagged CaN A subunit, Q08209", "experiment": "in vitro peptide pull-down (biotinylated peptide, immunoblot quantification)", "settings": "chain shown with the change; recombinant GST-CaN (200 ng); parent: est. 47; read off a plot"}
{"binder": "MAGPHTVFVITGPHEE", "note": "[APP peptide (APP core CaN-binding sequence in the PVIVIT peptide) I641F]", "values": [{"measurement": "response (% CaN input recovered)", "result": 23}]}
{"binder": "MAGPHTVIIITGPHEE", "note": "[APP peptide (APP core CaN-binding sequence in the PVIVIT peptide) V642I]", "values": [{"measurement": "response (% CaN input recovered)", "result": 44}]}
{"binder": "MAGPHTMIVITGPHEE", "note": "[APP peptide (APP core CaN-binding sequence in the PVIVIT peptide) V640M]", "values": [{"measurement": "response (% CaN input recovered)", "result": 43}]}
{"binder": "MAGPHTVIFITGPHEE", "note": "[APP peptide (APP core CaN-binding sequence in the PVIVIT peptide) V642F]", "values": [{"measurement": "response (% CaN input recovered)", "result": 44}]}
{"binder": "MAGPHTVIVIPGPHEE", "note": "[APP peptide (APP core CaN-binding sequence in the PVIVIT peptide) T644P]", "values": [{"measurement": "response (% CaN input recovered)", "result": 5}]}
{"binder": "MAGPHIVIVITGPHEE", "note": "[APP peptide (APP core CaN-binding sequence in the PVIVIT peptide) T639I]", "values": [{"measurement": "response (% CaN input recovered)", "result": 54}]}
